Reference: US20250333517A1 (ROCK BIOMEDICAL, published 2025)
Blank lines part the entries; values can stand above or below the binder they belong to.

What was measured:
[1] = target: T1, Vascular Endothelial Growth Factor (VEGF-A) (UniProt P15692-4 27-191, limits assumed); experiment: ELISA, target binding (FIG. 60)
T1 construct: also called the antigen (of Bevacizumab)

[2] = target: FcγRIIIA on the effector cells of the ADCC reporter assay (UniProt P08637 17-254, limits assumed); experiment: cell-based or functional assay
[3] = target: T2, CD20 (UniProt P11836 1-297, limits assumed); experiment: ELISA, target binding (FIG. 57)
T2 construct: also called the antigen (of Rituximab and Obinutuzumab)
T2 sequence (looked up): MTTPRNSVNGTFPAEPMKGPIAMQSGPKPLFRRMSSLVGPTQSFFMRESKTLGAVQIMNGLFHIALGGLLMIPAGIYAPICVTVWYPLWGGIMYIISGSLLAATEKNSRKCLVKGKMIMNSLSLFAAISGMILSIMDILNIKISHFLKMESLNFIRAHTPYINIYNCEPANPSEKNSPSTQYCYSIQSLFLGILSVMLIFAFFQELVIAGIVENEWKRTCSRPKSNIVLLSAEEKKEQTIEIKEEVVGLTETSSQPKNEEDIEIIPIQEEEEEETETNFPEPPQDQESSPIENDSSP

Sequence of FcγRIIIA on the effector cells of the ADCC reporter assay (P08637 17-254 limits assumed): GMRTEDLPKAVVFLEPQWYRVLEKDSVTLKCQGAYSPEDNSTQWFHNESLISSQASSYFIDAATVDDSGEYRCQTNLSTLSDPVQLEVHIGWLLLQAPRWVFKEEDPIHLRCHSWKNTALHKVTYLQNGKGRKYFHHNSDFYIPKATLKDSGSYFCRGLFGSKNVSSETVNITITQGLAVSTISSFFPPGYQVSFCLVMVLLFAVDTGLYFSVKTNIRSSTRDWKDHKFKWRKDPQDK
T1 sequence (P15692 other isoform, or with tags, fused parts or gaps limits assumed): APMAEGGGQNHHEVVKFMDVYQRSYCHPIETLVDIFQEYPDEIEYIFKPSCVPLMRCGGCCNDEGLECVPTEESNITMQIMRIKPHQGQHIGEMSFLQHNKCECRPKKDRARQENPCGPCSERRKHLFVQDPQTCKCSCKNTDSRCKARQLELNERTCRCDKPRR

EC50 [1]: 0.377 nM
B1: Bevacizumab population of the present disclosure (Biobetter), produced by SAII A3 cells (antibody, V domains shown)
VH: EVQLVESGGGLVQPGGSLRLSCAASGYTFTNYGMNWVRQAPGKGLEWVGWINTYTGEPTYAADFKRRFTFSLDTSKSTAYLQMNSLRAEDTAVYYCAKYPHYYGSSHWYFDVWGQGTLVTVSS
VL: DIQMTQSPSSLSASVGDRVTITCSASQDISNYLNWYQQKPGKAPKVLIYFTSSLHSGVPSRFSGSGSGTDFTLTISSLQPEDFATYYCQQYSTVPWTFGQGTKVEIKR
modifications: N-glycan on the heavy chain: around 82.6% SCT glycans, mostly with core fucose
notes: also called glycoengineered Avastin protein population

ADCC EC50 (M), ADCC Reporter Bioassay [2]: 1.76e-10 M
EC50 [3]: 0.77 nM
B2: Rituximab population of the present disclosure (Biobetter), produced by SAII A3 Fut8 KO cells (antibody, human IgG1, kappa)
heavy: not shown
light: QIVLSQSPAILSASPGEKVTMTCRASSSVSYIHWFQQKPGSSPKPWIYATSNLASGVPVRFSGSGSGTSYSLTISRVEAEDAATYYCQQWTSNPPTFGGGTKLEIKRTVAAPSVFIFPPSDEQLKSGTASVVCLLNNFYPREAKVQWKVDNALQSGNSQESVTEQDSKDSTYSLSSTLTLSKADYEKHKVYACEVTHQGLSSPVTKSFNRGEC
modifications: N-glycan on the heavy chain: around 83.4% SCT glycans, no core fucose
notes: also called glycoengineered MabThera protein population
